3 molecules from article doi:10.1101/2022.04.18.488656, “HNRNPH1 destabilizes the G-quadruplex structures formed by G-rich RNA sequences that regulate the alternative splicing of an oncogenic fusion transcript” can be followed below.

Usually Kd stands for the equilibrium constant for the complex coming apart.

Data set [1] deals with T1, HNRNPH1 full-length (UniProt P31943 1-449).
T1 sequence: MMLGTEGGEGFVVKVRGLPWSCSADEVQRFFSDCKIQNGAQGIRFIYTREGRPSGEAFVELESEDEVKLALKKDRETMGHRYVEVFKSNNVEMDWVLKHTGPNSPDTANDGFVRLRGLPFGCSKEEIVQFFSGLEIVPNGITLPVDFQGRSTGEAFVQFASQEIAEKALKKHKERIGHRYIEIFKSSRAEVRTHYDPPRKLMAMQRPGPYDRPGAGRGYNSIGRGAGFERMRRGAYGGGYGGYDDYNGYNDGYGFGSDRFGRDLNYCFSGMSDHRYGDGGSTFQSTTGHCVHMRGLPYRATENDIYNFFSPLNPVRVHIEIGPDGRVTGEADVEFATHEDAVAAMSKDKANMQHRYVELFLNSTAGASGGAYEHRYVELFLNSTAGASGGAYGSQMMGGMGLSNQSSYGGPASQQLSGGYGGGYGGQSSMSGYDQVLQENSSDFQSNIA
The data set is described as follows: BLI; 150 mM KCl (G4); BLI: 10 mM Tris-HCl pH 7.4, 150 mM KCl, 0.005% P-20, 1 mM EDTA; EMSA: 10 mM Tris-HCl pH 7.4, 1 mM EDTA, 150 mM KCl, room temp, 3 nM RNA; FRET: same Tris/EDTA with 25 mM KCl, room temp. The conditions noted are these: protein: recombinant, tags: FLAG, label: 5'-biotin.

Data set [2] concerns the target T2, HNRNPF (UniProt P52597 1-415).
T2 sequence: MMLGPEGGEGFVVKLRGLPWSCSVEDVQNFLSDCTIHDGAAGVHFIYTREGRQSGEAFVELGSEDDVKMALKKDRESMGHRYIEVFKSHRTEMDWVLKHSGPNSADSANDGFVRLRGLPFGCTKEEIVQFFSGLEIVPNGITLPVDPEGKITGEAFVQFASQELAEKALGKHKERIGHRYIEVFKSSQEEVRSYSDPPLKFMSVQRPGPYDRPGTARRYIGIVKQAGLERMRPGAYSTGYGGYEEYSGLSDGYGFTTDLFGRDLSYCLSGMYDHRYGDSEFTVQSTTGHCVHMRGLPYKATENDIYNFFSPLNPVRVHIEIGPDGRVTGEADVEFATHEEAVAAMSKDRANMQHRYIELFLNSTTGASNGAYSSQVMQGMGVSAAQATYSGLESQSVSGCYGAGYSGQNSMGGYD
Nature of the data set: BLI; 150 mM KCl; BLI: 10 mM Tris-HCl pH 7.4, 150 mM KCl, 0.005% P-20, 1 mM EDTA; EMSA: 10 mM Tris-HCl pH 7.4, 1 mM EDTA, 150 mM KCl, room temp, 3 nM RNA; FRET: same Tris/EDTA with 25 mM KCl, room temp. The settings on record: protein: recombinant; label: 5'-biotin; parallel two-tier G4, intramolecular. (In general: BLI is a label-free optical method that tracks binding on a fibre tip over time.)

The target of data set [3] is T3, HNRNPH1 qRRM1-2 (UniProt P31943 11-188).
T3 sequence: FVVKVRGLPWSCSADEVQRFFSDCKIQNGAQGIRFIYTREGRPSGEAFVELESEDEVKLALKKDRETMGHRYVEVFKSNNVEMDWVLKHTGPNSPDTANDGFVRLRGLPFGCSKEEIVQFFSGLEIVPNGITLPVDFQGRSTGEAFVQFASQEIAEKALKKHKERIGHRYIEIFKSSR
The description is as above. The conditions noted are these: protein: recombinant; label: 5'-biotin; parallel two-tier G4, intramolecular.

Where [4] appears, read: parallel two-tier G4, intramolecular.

Regarding GGUGGGCGGGGAGGAGGACGCGGUGGAAU (structured_RNA) [rG2], the Kd in data set [1] (parallel two-tier G4) was 3.1 ± 0.7 nM.
In the case of GGGCGGGGAGGAGGACGCGGUGGAAUGGG (structured_RNA) [rG3], the results for the Kd in data set [2], in data set [3] and in data set [1] (setting [4]) were 0.35 nM, 4 ± 0.7 nM and 1.39 ± 0.54 nM, respectively.
Taken in the same sequence, the figures for ACCGGGGCAGGGGAAGAGGGGGAUU (structured_RNA) [rG1] were 0.34 nM, 6 ± 0.8 nM and 1.08 ± 0.53 nM.
